In experiment [1] the target is T1, CaV2.2 Ct-dis-GST fusion protein (distal end of the C-terminus of CaV2.2) (rat, UniProt Q02294 2121-2336).
T1 construct: range 2133-2348; also called distal C-terminus; not shown: GST tag of the pGex-3x-Glu vector
Kind of experiment: SPR (BIAcore 3000), immobilized Ct-dis-GST. (In general: SPR reads the build-up and loss of mass on a sensor chip optically.)

In experiment [2] the target is T2, CaV2.2 L1-GST fusion protein (first cytosolic loop of CaV2.2) (rat, UniProt Q02294 356-483).
T2 construct: range 356-483; also called cytosolic loop 1; first intracellular loop; not shown: GST tag of the pGex-3x-Glu vector
Kind of experiment: SPR (BIAcore 3000), immobilized L1-GST.

T2 sequence (Q02294 other isoform, or with tags, fused parts or gaps): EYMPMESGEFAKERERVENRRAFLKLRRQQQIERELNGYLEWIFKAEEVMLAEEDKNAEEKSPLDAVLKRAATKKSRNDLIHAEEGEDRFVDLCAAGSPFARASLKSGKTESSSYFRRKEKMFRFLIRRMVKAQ
T1 sequence (Q02294 other isoform, or with tags, fused parts or gaps): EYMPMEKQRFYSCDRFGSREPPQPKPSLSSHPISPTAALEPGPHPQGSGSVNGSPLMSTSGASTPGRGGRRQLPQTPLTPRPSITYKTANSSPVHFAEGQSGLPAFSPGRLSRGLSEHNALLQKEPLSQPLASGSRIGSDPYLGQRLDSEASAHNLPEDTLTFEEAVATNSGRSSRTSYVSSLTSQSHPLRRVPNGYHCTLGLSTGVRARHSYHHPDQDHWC

B1: TAT-Scramble (modified TAT sequence coupled to a random sequence) (peptide)
peptide: YGRKKRRQRRRWEAKEMLYFEALVIE
notes: also called TAT control; scramble peptide
For B1, the binding result in experiment [1] and in experiment [2] was “no binding (tested: 1/3/5 µM)” in each case.
